Measurements as given in patent publication US20050287150A1 (UNIVERSITY OF MASSACHUSETTS, published 2005).

Assays:
C. difficile toxin A [1] = molecular target: T1, C. difficile toxin A (Clostridium difficile, UniProt P16154 1-2710); assay: SPR (Biacore), antibody on protein A-coated chip, toxin A flowed over
[2] = molecular target: toxin A subfragment amino acids 1-165 (Clostridium difficile, UniProt P16154 1-165); assay: western blot on toxin A subfragments
[3] = molecular target: toxin A subfragment amino acids 1-290 (Clostridium difficile, UniProt P16154 1-290); assay: western blot on toxin A subfragments
[4] = molecular target: toxin A subfragment amino acids 1-415 (Clostridium difficile, UniProt P16154 1-415); assay: western blot on toxin A subfragments
C. difficile toxin A [5] = molecular target: T1, C. difficile toxin A; assay: ELISA, 1 ug/ml Toxin A coat, O.D. 405 nm
C. difficile toxin A [6] = molecular target: T1, C. difficile toxin A; assay: ELISA, 1 ug/ml Toxin A coat, O.D. 405 nm, four-parameter fit
[7] = molecular target: toxin A subfragment amino acids 660-807 (Clostridium difficile, UniProt P16154 660-807); assay: western blot on toxin A subfragments
[8] = molecular target: toxin A subfragment amino acids 660-920 (Clostridium difficile, UniProt P16154 660-920); assay: western blot on toxin A subfragments

Row | Binder | Kd (C. difficile toxin A [1]) | binding result [2] | binding result [3] | binding result [4] | EC50 (read off the curve) (C. difficile toxin A [5]) | A (lower asymptote of the four-parameter fit) (C. difficile toxin A [6]) | D (upper asymptote of the four-parameter fit) (C. difficile toxin A [6]) | EC50 (C. difficile toxin A [6]) | binding result [7] | binding result [8]
1 | human monoclonal antibody produced by hybridoma clone 1B11 (antibody, V domains shown, also called HuMAb 1B11) VH: QMQLVESGGGVVQPGRSLRLSCEASGFSFNSYGMHWVRQAPGKGLEWVSVIWASGNKKYYIESVEGRFTISRDNSKNTLYLQMNSLRAEDTAVYYCARANFDYWGQGTLVTVSS VL: EIVLTQSPATLSLSPGERATLSCRASQSVSSYLAWYQQKPGQAPRLLIYDASNRATGIPARFSGSGSGTDFTLTISSLEPEDFAVYYCQQRSNWSQFTFGPGTKVDIK | 0.738 nM | no binding | no binding | no binding | ~2 ng/mL | 0.203 O.D. 405 nm | 3.58 O.D. 405 nm | 2 ng/mL | – | –
2 | human monoclonal antibody produced by hybridoma clone 3D8 (antibody, V domains shown, also called HuMAb 3D8) VH: QVQLVESGGGVVQPGRSLRLSCAASGFSFSNYGMHWVRQAPGKGLEWVALIWYDGSNEDYTDSVKGRFTISRDNSKNTLYLQMNSLRAEDTAVYYCARWGMVRGVIDVFDIWGQGTVVTVSS VL: DIQMTQSPSSVSASVGDRVTITCRASQGISSWLAWYQHKPGKAPKLLIYAASSLQSGVPSRFSGSGSGTDFTLTISSLQPEDFATYYCQQANSFPWTFGQGTKVEIK | 1.46 nM | – | – | – | – | 0.173 O.D. 405 nm | 3.66 O.D. 405 nm | 4 ng/mL | – | –
3 | human monoclonal antibody produced by hybridoma clone 33.3H2 (antibody, V domains shown) VH: QVQLVESGGGVVQPGRSLRLSCAASGFTFNKYGMHWVRQAPGKGLEWVAVIWYDGTNKYYADSMKGRFTISRDNSKNMLYLQMNSLRAEDTAVYYCARDPPTANYWGQGTLVTVSS VL: DIQMTQSPSSLSASVGDRVTITCRASQGISSWLAWYQQKPEKAPKSLIYAASSLQSGVPSRFSGSGSGTDFTLTISSLQPEDFATYYCQQYKSYPVTFGGGTKVEIK | – | – | – | – | – | 0.172 O.D. 405 nm | 3.7 O.D. 405 nm | 5 ng/mL | no binding | no binding
